Data published in a protein production outcome set (Wang et al. 2014).

Assay: label from the status in PepcDB records

Row | Sequence | protein production
1 | MNSESKLSQKANSSFTMDDFAKALENHDYQFQKGQVVYGKVFQLDPDGAYVDIGGKSSAYIPRDEASLRAVNDLAAVLPLHEELEFIIIREQDAEGQVTLSRRQLEINHIWEKLAQMKENSQPVDVKVTGVNKGGVTVDVQSLRGFIPRSHLTERDNLEALKGHTLTAGFLEVDRNNKKLVLSQRLVTRSSNFNQLEIGQLVEGKITGIKPFGVFVDLNGLSALLHIKQVSQKFIESLEKVFQPGQTIKAIVIDLDQGKGRVAISTRALENFPGEVLENFEEVMASAEARANRAANKMNEGGVGV | failed
2 | MNSGRPETMENLPALYTIFQGEVAMVTDYGAFIKIPGCRKQGLVHRTHMSSCRVDKPSEIVDVGDKVWVKLIGREMKNDRIKVSLSMKVVNQGTGKDLDPNNVIIE | not failed
3 | MNSIKNVPARVLSRRPGHSLEAEREQFDKTQAISISKAINTQEAPVKEKHARRIILGTHHEKGAFTFWSYAIGLPLPSSSILSWKFCHVLHKVLRDGHPNVLHDCQRYRSNIREIGDLWGHLHDRYGQLVNVYTKLLLTKISFHLKHPQFPAGLEVTDEVLEKAAGTDVNNIFQLTVEMFDYMDCELKLSESVFRQLNTAIAVSQMSSGQCRLAPLIQVIQDCSHLYHYTVKLLFKLHSCLPADTLQGHRDRFHEQFHSLRNFFRRASDMLYFKRLIQIPRLPEGPPNFLRASALAEHIKPVVVIPEEAPEDEEPENLIEISTGPPAGEPVVVADLFDQTFGPPNGSVKDDRDLQIESLKREVEMLRSELEKIKLEAQRYIAQLKSQVNALEGELEEQRKQKQKALVDNEQLRHELAQLRAAQLEGERSQGLREEAERKASATEARYNKLKEKHSELVHVHAELLRKNADTAKQLTVTQQSQEEVARVKEQLAFQVEQVKRESELKLEEKSDQLEKLKRELEAKAGELARAQEALSHTEQSKSELSSRLDTLSAEKDALSGAVRQREADLLAAQSLVRETEAALSREQQRSSQEQGELQGRLAERESQEQGLRQRLLDEQFAVLRGAAAEAAGILQDAVSKLDDPLHLRCTSSPDYLVSRAQEALDAVSTLEEGHAQYLTSLADASALVAALTRFSHLAADTIINGGATSHLAPTDPADRLIDTCRECGARALELMGQLQDQQALRHMQASLVRTPLQGILQLGQELKPKSLDVRQEELGAVVDKEMAATSAAIEDAVRRIEDMMNQARHASSGVKLEVNERILNSCTDLMKAIRLLVTTSTSLQKEIVESGRGAATQQEFYAKNSRWTEGLISASKAVGWGATQLVEAADKVVLHTGKYEELIVCSHEIAASTAQLVAASKVKANKHSPHLSRLQECSRTVNERAANVVASTKSGQEQIEDRDTMDFSGLSLIKLKKQEMETQVRVLELEKTLEAERMRLGELRKQHYVLAGASGSPGEEVAIRPSTAPRSVTTKKPPLAQKPSVAPRQDHQLDKKDGIYPAQLVNY | not failed
4 | MNSIWKQYIDILQGVVKPALGCTEPICAAYAASVATQMLGSKPETIDVFVSDNLYKNSMGVFVPRTGRVGLAIAAATGAIGGNPDAGLEVLAKITEEEVDEAQKLIDNGCVVVQRETTDEFIYCRVIAKNAVHNAEVTISGGHTLIIEKRLDDNVIFTLDSSLPKTSTASICDGVDITISSIYDFATQAEFDDIKFILEAKELNIALAQEGLNNPYGLEVGRTYQKNIEKGLLAKSLDSDILIYTSAASDARMGGATLPAMSNYGSGNQGIAATIPVVKMADFFNADDEKLARAFIMSHLGAIYIKSHYPPLSAFCGNAVTSAAASMAMVYLAGGTFEQSCSAIQNTISDTSGMICDGAKSTCAMKVGSSAQSAMKSALLALNDHCVTKQGVIADDVEKTIKNIGRMITTGMPNIDHEIIEIMAS | failed
5 | MNSKIMYHIFPDRFHRYGEDRPGLIKWGEKPSRDSFFGGNLEGIRQKIQYIKDLRVDHIYLNPLFKSKSNHRYDVDDYYSIDELLGTDQDLKNLVSDAHASGIKIVLDMVFNHTSTDFPAFRDVIEKGRNSPYYRWYIFHRDEFTVFRGRGKRGSYPSYETFMGYGGMPKLDHRNPEVRRYCINVLKYYVQKFDVDGFRYDVAHSIYSKFFEEVFSEIGTGILHIGEAWCLPTYLVNGSAWQSYTNYFLGGSIIDFLKGSITLGEFYDRVQRMLIVNGIEKQQAMMNVLDSHDTPRILRILNGDRKKVKLAYSILYLFDGIATIYYGDEVGLDGGKDPDDRRCFPWDSMDEDMHSFFMNLGDLREKYSLGSALEHHHHHH | failed
6 | MNSLQILSFVGFTLLVAVITWWKVRKTDTGSQQGYFLAGRSLKAPVIAASLMLTNLSTEQLVGLSGQAYKSGMSVMGWEVTSAVTLIFLALIFLPRYLKRGIATIPDFLEERYDKTTRIIIDFCFLIATGVCFLPIVLYSGALALNSLFHVGESLQISHGAAIWLLVILLGLAGILYAVIGGLRAMAVADSINGIGLVIGGLMVPVFGLIAMGKGSFMQGIEQLTTVHAEKLNSIGGPTDPLPIGAAFTGLILVNTFYWCTNQGIVQRTLASKSLAEGQKGALLTAVLKMLDPLVLVLPGLIAFHLYQDLPKADMAYPTLVNNVLPVPMVGFFGAVLFGAVISTFNGFLNSASTLFSMGIYRRIINQNAEPQQLVTVGRKFGFFIAIVSVLVAPWIANAPQGLYSWMKQLNGIYNVPLVTIIIMGFFFPRIPALAAKVAMGIGIISYITINYLVKFDFHFLYVLACTFCINVVVMLVIGFIKPRATPFTFKDAFAVDMKPWKNVKIASIGILFAMIGVYAGLAEFGGYGTRWLAMISYFIAAVVIVYLIFDSWRHRHDPAVTFTPDGKDSL | failed
7 | MNSNDQPGLDLLGDPIVLTQRLVDIPSPSGQEKQIADEIEDALRNLNLPGVEVFRFNNNVLARTNRGLASRVMLAGHIDTVPIADNLPSRVEDGIMYGCGTVDMKSGLAVYLHTFATLATSTELKHDLTLIAYECEEVADHLNGLGHIRDEHPEWLAADLALLGEPTGGWIEAGCQGNLRIKVTAHGVRAHSARSWLGDNAMHKLSPIISKVAAYKAAEVNIDGLTYREGLNIVFCESGVANNVIPDLAWMNLNFRFAPNRDLNEAIEHVVETLELDGQDGIEWAVEDGAGGALPGLGQQVTSGLIDAVGREKIRAKFGWTDVSRFSAMGIPALNFGAGDPSFAHKRDEQCPVEQITDVAAILKQYLSE | not failed
8 | MNSTISFLYQPKVQNGSIISVEALLRVPGVTNIESYVSMVTNKPLFDYTIIRKVLSDRREYHENIGYSFPVSINISIQSLESDYFINKTSKLLKNEPNVTLEITENDSYLSLERVKESMGILKSLGVKFSLDDFGKGFSDIEQVLSLDLDEIKVDGSLVNDIENNFYKFRHLKYTLDELEDISNFNIVIERVENKKQVNLIESLGKKVSYQGYFFYKPMNLFDLTIATPEPHKEEKHEPKLLLEKLIYELIKTDNDNECAQLVNDIHSVDIFNNLGSKVCDSLTITEVKKSILKKYNKIALNPNSPENLFFKSYLNCMSRLVIIRDSEGNALFNNQAHINFMNVDLVGMPLESIYEKFEQYESCIAIDKELIESKSNFLAVREVVDFDGQTKSYYTFRQKINHYGKTLIITIVYDEDDRDSFPRDALTDCFDRTILNSYYMNQFNMVAFIDMDGFKKINDNFSHKLGDDCLSKFVMYLKHELRKEDLIIRYGGDEFLIFTQWDDRHTFESRLNLIRNKVEKLFKSNNIDLSFSYGIEDLSKGMEIAINCADEKMYADKSRKLQ | failed
9 | MNSYPLISVIMSVYKEEREWLVSSIQSILDQTVSDFEFIIILDFPNSELLKTLKDFEKKDSRIIIYQNEKNVGLVESLNTALSFSRGKYIARMDADDISHKNRFEKQLKYITLNNLDLVGGNVNIFHSNKGIYNTTDKVQSDYFLCKLLKIGTIGIVHPTFFSKRNVYDTIGGYYHAECAEDLELLMRANLNGFKIGNIPDVILDCRYSEKSITKENAYFMFCTVKYLKSLYRSSLKSGDYKFNSNYIELYLYDENNKLAFSEKQNLMSEARHSFNEKKYISFLINLIKSILISRTVFFSIKVNVMSFLFRKVEVKIPKVLLACIKIKLQLEHHHHHH | not failed
10 | MNTFPWLTTIILLPIVAALFIPIIPDKDGKTVRWYSLAVGLVDFALIVYAFYSGFDLSEPGLQLVESYTWLPQIDLKWSVGADGLSMPLIILTGFITTLATMAAWPVTLKPKLFYFLMLLMYGGQIAVFAVQDILLFFLVWELELVPVYLILSIWGGKKRLYAATKFILYTAGGSLFILLAGLTLAFYGDVNTFDMSAIAAKDIPVNLQLLLYAGFLIAYGVKLPIFPLHTWLPDAHGEATAPAHMLLAGILLKMGGYALLRMNVGMLPDAHAVFAPVLVILGVVNIIYAAFTSFAQRNLKRKIAYSSISHMGFVLIGLASFTDLGMSGAMLQMISHGLIGASLFFMVGATYDRTHTLMLDEMGGIGQKMKKGFAMWTACSLASLALPGMSGFVAELMVFVGFATSDAYNLVFRTIVVVLMGVGVILTPIYLLSMLREMLYGPENEELVNHTNLVDVEPREVFIIGCLLVPIIGIGFYPKLITQIYDPTINQLVQTARRSVPSLVQQANLSPLEVTALRPPTIGF | failed
